Experiment: yeast display, Sf9 membrane polyspecificity reagent, FACS + sequencing; frameworks hold sequencing errors
How it was run: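 A nanobody's polyreactivity label depends on the gate it was sorted from. Yeast display cells were stained with 10% biotinylated, detergent-solubilized Sf9 membrane reagent for 1 hour at 4 °C, enriched on streptavidin microbeads and sorted by FACS. The low and high (top ~1%) gates were set on anti-HA fluorescence for expression and streptavidin fluorescence for reagent binding.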

Sequence | polyreactivity (PSR sort gate)
QVQIVESGGRLVQAGGSLRLSCAASGSIFVWYAMGWYRQAPGKERELVSRITSGGRTNYADSVKGRFTISRDNAKNTVYLQMNSLKPEDTAVYYCAAGRVSWSPYYYWGQATQVTVSS | high polyreactivity
QVQIVESGRGLVQAGGSLRLTCAASGINFHFNDMGWYRQAPRKQRELVAAIDSTGSTNYADSVKGRFTISRDNAKNTVYLQMNSLKPEDTAVYYCAVLNHRVDSVLTRYYYWGQGTQVTVSS | low polyreactivity
QVQIVESRGGLVQAGGSLRLSCAASGSTIPYYAMGRYRQAPGKERELVARIRWNGDSTYYADSVKGRFTISRDIAKNTVYLQINSLKPEDTAVYYCARQGYTLYRTRNRYDYWGKGTQVTVSS | high polyreactivity
QVQIVESRGGLVQAGGSLRLSCDASGRTILIYAMGWYRQAPRKERELVAAITSGGRTKYADSVKGRFTISRDNGKNTVFLQMNSQKPEDTAVYYCAAESNRLRYYYWGQGSQVTVSS | high polyreactivity
QVQIVETGGGLVQAGGSLRLSCAASGFIFSNYARGRYRQAPGKERELVAAISWSGGRTYYADSVKGRFTISRDNAKNSVYLQMNSLKPEDTAVYYCATRYGSASGREYEYWGQGTQVTVSS | high polyreactivity
QVQIVHSGGGLVQAGGSLRLSCAASGRTIGGNAMGWYRQAPGKEWELVAAISYSDGSTYYADSVKGRFTISRDNAKNTVYLQMNSLKPEDTAVYYCAADRYAILLYAEDYWGQGTQVTVSS | low polyreactivity
QVQIVQSGGGLVQAGGSLRLSCAASGSTITYNAMGWYRQAPGKERELVAAITVSDGSTYYADSVKGRFTISRDNAKNTVYLQMNSLKPEDTAVYYCNAYAVYLRYLWYDFWGQGTQVTVSS | low polyreactivity
QVQLAESGGCLVQAGGSLRLSCAASGIIFYFYAMGWYRPAPGKERELVAAISGTGGRTYYADSVKGRFTISRDNAKNTVSLQMNSLKPDDTAVYYCNADDTPVPSIRFDYWGQGTQVTVSS | low polyreactivity
QVQLAESGGGLVQAGGSLRLSCAASGRIFAFYAMGWYRQAPGKERELVAIISSAGRPYYADSVKGRFTISRDNAKYTVYLQMNSLKREDTAVYYCAAGGRARTYYYWGQGTQVTVSS | high polyreactivity
QVQLAESGGGLVQAGGSLRLSCAASGRIFARNAMGWYRQAPGKERELVAAISWSGGRTYYADSVKGRFTISRDNAKNTVYLQMNSLKPEDTAVYYCAADHYPWWAWEFDYWGQGTQVTVSS | low polyreactivity
QVQLAESGGGLVQAGGSLRLSCAPSGSTFEINAMGWYRQAPGKETELVAAISRGGSTNYADSVKGRFSISRDNAKNTVYLQMNSLKPEDSAVYDCARDPRFRYYRVSYANDQEFEYSGQGTQVTVSS | high polyreactivity
QVQLAESGGGLVQAGGSLRLSSAASGRTIGFNGMGWYRQAPGKERELVAAITWNGDSTYADSVKGRFTISRDNAKNTVYLQMNSLKPDDTAVYYCGAEVVAQMNYWGQGTQVTVSS | low polyreactivity
QVQLEDAGGGLVQAGGSLRLSCAASGRIIGWYTIGRYRQAPGKERELVATSSSSGASTYYADSVKGRFTISRDNAKNSVYFQMNSLKPEDTGVYYCAAQYYPYSFAHRYGYWGQGSQVTVSS | high polyreactivity
QVQLEDSGGGLDQAGGSLRLSCAASGITFIRYAMVWYRQAPGKERELVAAIPTSGSSKFYADSVKGRFTISRDNAKNTVYLQMNSLKPEDTAVYYCAAVFRWARLYTFYGSKVDYWGQGTQVTVSS | high polyreactivity
QVQLEDSGGGLVQAGGRLRLSCAASGSIFFSYAMGWYRQAPGTERELVAGINWSGGSTYADCVKGRFTISRDNAKNTVYLQMNSQKPEDTAVYYCAAKYYSERSRYHYWGLGTQVTVSS | low polyreactivity
QVQLEDSGGGLVQAGGSLPLSCAASGGTFTDYAMGWYRQAPGKERELVAAISSVGSTNYADSVKGRFTISRDNAKNTVYLQMNSLKPEDTAVYYCAVDYGRAVQVDSITYDFNYWGQGTQVNVSS | low polyreactivity
QVQLEDSGGGLVQAGGSLRLSCAASGSTFLYYARGWYRQAPGKERELVAAITSGGSTYYADSVKGRFTISRDNAKNTVYLQMNSLKPEDTAVYYCAAASRRGYYYWGQGTQVTVSS | high polyreactivity
QVQLEDSGGGLVQAGGTLRLRCAASGITFGTNDMGWYRKAPGKETELVAAIDGSGETYYADSVKGRFTISRDNAKNTVYLLMNSLKPVDTAVYYCAADVIYWFSGEYDYWGQGTQVIVSS | low polyreactivity
QVQLEDSGRGLFQAGGSLRLSCAASGSIVALYTMGWYRQAPGKEREFVAGIRTGGSTIYADSVKGRFTISRDNAKNTVYLQMNSRKPEDTPVYYDDWGQGTQVTVSS | low polyreactivity
QVQLEESAGGIVQAGGSLRFSCAASGSTISAYDIGCYRQEPGKEWELVAAITWIGGNTYYADSVKGRFTISRDTAKNTVYLQMNSLKPEDTEFYYCAAEEVPYDRDMDYWGQGTQVTVSS | low polyreactivity
QVQLEESAGRLVQAGGSLRLSCAASGFIISPYAMGWYRQAPGKERELVAAISWSGVYTYYADTVKGRFTISRDNAKNTVYLQMNSLKPEDSAVYYCATYGTVYYWGQGTQVTVST | high polyreactivity
QVQLEESAGRLVQAGGSLRLSCAASGYTFGYYAMGWYRQAPGKERQLVAAISWRGARTNYADSVKGRFTISRDNAKNTVYLQMNSLKPEDTAVYYCAAGYYYGYPPRDYWGQGTQVTVSS | high polyreactivity

Sequence | polyreactivity (PSR sort gate)
QVQLEESAGRLVQARGSLRLSCAASGSTFGYNAMGWDSQAPGKARELVAALTRRGGRTYYADSVKGRFTISRDNAKNTVYLQMNSLKPEDTAVYYCAATSRGSGQRPGEAIIDYYYWGQGTQVTVSW | high polyreactivity
QVQLEESCGGLVQAGGSHRLSCAASGSTIYNNAMGWYRQAPRKERELVAAISSGGGITYYADSVKGRFTISRDNAKNSVYLQMNSLKPEDTAVYYCNARRIYLGYNYWGQGTQVTVSS | high polyreactivity
QVQLEESCGGLVQAGGSLRLSCAASGPIIRAYAMGWYRQAPGKERELVAAITRSGGSTYYADSVKGRFTISLDNAKNTVYLQMNSLKPEDTAVYYCNARTRYDDGYDSWGQGTQVTVSS | high polyreactivity
QVQLEESGAGLVQAGGSLRLSCAASGRTFWFYTMGLYRQAPGKERELVAAISSAGSTNYADSVKGRFTISRDNAKNTVYLQMNSLKPEDTAVYYCNARFPVGPSEDAVWYYPKYDYWGQGTQVTVSS | low polyreactivity
QVQLEESGAGLVQAGGSLRLSCAASGSIFNLYAMGWYRQAPGKEMELVAAINWSGGSTYYADSVKGRFTISRDNAKNTVYLQMNSLKPEDTAVYYCAADAYSTYYGYEGDYWGQGTQVTVSS | low polyreactivity
QVQLEESGAGLVQAGGSLRLSCAASVFTFCCTTMGRSRPAPGKESELVATISRTGGITYYADSVKGRFTISRDNAKNTVNLQMNSLKPEDTAVYYCILRYYWGQVTQVTVSS | high polyreactivity
QVQLEESGAGLVQAGGSLRLTCAASGSTFYSNVMGWYRQAPGKEREFVAGISGSGGSTYYADSVKGRFTISRDNGNISVYLLINSLKPEDPAVYYCKAVRYPRLLYYWGQGTQVNVSS | high polyreactivity
QVQLEESGGCLVQAGGSLRLSCAASGFTFRSYAMGWYRQAPGKERELVAAISSGGSTYYADSVKGRFTISRDNAKITVYLKMNSLKPEDTAVYYCAARRYYGYGHWGQGTHVTVSS | high polyreactivity
QVQLEESGGCLVQAGGSLRLSCAASGSTFVYNVMGWYRQAPGKERELVAAITSGVRTYYADSVKGRFTISRDNAKNTVYLQMNSLKPEDTAGYYCATGWRYAKYYYWGQGTQVTVSS | high polyreactivity
QVQLEESGGGIVQAGGSLRLSCAASGRIFRIYAMGWYRKAPGKERELVARITYSGGSTYYADSVKGRFTISRDKAKNTVYLQMNSLKPEDTAVFYCAADWLFYQYGYWGQGTQVTVSS | low polyreactivity
QVQLEESGGGLCQAGGSLRLSCAPSGSIFVSNAMVCYRQAPGKERELVAAITYNGGRTFYADSVKGRFTISRDNAKNTVYLQLNSLKPEDTAVYYFAADGSWHGYGYWGQGTQVTVSS | low polyreactivity
QVQLEESGGGLDQAGGSLRLSCAASGSIFYYYAMGWYRQAPGKERELVAVIDFSGASTSYAVSVKGRFTISRDNAKITVYLQMNSLKPEDTAVYYCAADRRSKYDYWGQGTQVTVSS | low polyreactivity
QVQLEESGGGLVQAGGRLRLSCAASGRTFSTYAMGWYRQATGKERELVAAITRRGGSTSYADSVKGRFTISRDNANNTVYLQMNSLNPEDTAVYYCARENPGDSYYDYWGQGTQVTVSS | low polyreactivity
QVQLEESGGGLVQAGGRLRLSCAASGSTFVRSVMGSYRAAPGKERELVAAISEGGGSTYYADSVKGRFTISRDNAKNTVYLQMNSLKPEDTAVYYCAAEGYFRYWYGTIQYDYWGQGTQVTVSS | high polyreactivity
QVQLEESGGGLVQAGGSHRLSCAASGFTFIDNAMGSYRQAPGKERELVAAISISGGRTYYADSVKGRFTISRDNAKNTVYLQMNSLKPEDTAVYYCAAGKHRRDDYWGQGTQVTVSS | high polyreactivity
QVQLEESGGGLVQAGGSIRLSCAASGRTIVYNAMGWYRQAPGNERELVDAIDGGGDRTYYADSVKGRFTISRDNAKITVYLQMNRLKPEDTAVYYCARDPGDTYYYSYPEGDYWGQGTQVSVSS | low polyreactivity
QVQLEESGGGLVQAGGSLRFSFAASGSIFRYYAMGWYRQAPGKERELVANISRGCSTYYADSVKGRFTISRDNAKKTVYLQMNSLKPDDTAVYYCAADISERYDYWGQGTQVTVSS | high polyreactivity
QVQLEESGGGLVQAGGSLRISCAASVRILSWYAIGWYRQAPGKERELVAAISVRGSTYYADSVKGRFTISRDNAKNTVYLQMNSLKPDDTAVYYSNRVWLQASTTIVVSSRRLYYWGLGTQVTVSS | high polyreactivity
QVQLEESGGGLVQAGGSLRLSCAASGFIFDYYAMGWYRQAPGKERELVAAISSSGGSTYADSVKGRFTISRDNAKNTVYLQMNSLKPEDTAVYYCAADWYKRPPYDYWGQGTQVTVSS | low polyreactivity
QVQLEESGGGLVQAGGSLRLSCAASGFIFGLNAMGWYRQAPGKERELVAGIRSGSSTNYADSVKGRFTISRDNAKNTVYLQMNSLKPEDTAVYYCATEGYWVYGFDDEYWGQGTQVTVSS | low polyreactivity
QVQLEESGGGLVQAGGSLRLSCAASGFIFGRNAMGWYRQAPGKERELVAAITRSGGSTYYADSVKGRFTISRDNAKNTVYLQMNSLKPEDTAVYYCAKGVFTWGVFRVGIRDDYWGQGTQVTVSS | high polyreactivity
